Measured values as given in the supplement of paper PMC9233669.
Fewer inactive variants are shown than the library holds.

Tests used:
biotinyl-Val-oxazolone = experiment: self-aminoacylation, catalytic enhancement (BVO) (fold over background); higher = more active; k-Seq, kA / k0A0; sequences stand for … in GGGAAUGGAUCCACAUCUACGAAUUC…UUCACUGCAGACUUGACGAAGCUG
Method in brief: (§1)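 Mutagenized RNA pools (0.43 μM; 21-nt variable region) were treated with 2–1250 μM of each biotinyl-aminoacyl-oxazolone. Conditions were 50 μL HEPES/NaCl/KCl/MgCl2/CaCl2 buffer, 5% acetonitrile, pH 6.9–7.0, room temperature, 90 minutes. Catalytic enhancement, the median kA relative to the uncatalyzed rate, was derived from streptavidin capture, qPCR and Illumina sequencing.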

biotinyl-Ile-oxazolone = experiment: self-aminoacylation, catalytic enhancement (BIO) (fold over background); higher = more active; k-Seq, kA / k0A0; sequences stand for … in GGGAAUGGAUCCACAUCUACGAAUUC…UUCACUGCAGACUUGACGAAGCUG
Method in brief: as §1

biotinyl-Met-oxazolone = experiment: self-aminoacylation, catalytic enhancement (BMO) (fold over background); higher = more active; k-Seq, kA / k0A0; sequences stand for … in GGGAAUGGAUCCACAUCUACGAAUUC…UUCACUGCAGACUUGACGAAGCUG
Method in brief: as §1

biotinyl-Leu-oxazolone = experiment: self-aminoacylation, catalytic enhancement (BLO) (fold over background); higher = more active; k-Seq, kA / k0A0; sequences stand for … in GGGAAUGGAUCCACAUCUACGAAUUC…UUCACUGCAGACUUGACGAAGCUG
Method in brief: as §1

biotinyl-Phe-oxazolone = experiment: self-aminoacylation, catalytic enhancement (BFO) (fold over background); higher = more active; k-Seq, kA / k0A0; sequences stand for … in GGGAAUGGAUCCACAUCUACGAAUUC…UUCACUGCAGACUUGACGAAGCUG
Method in brief: as §1

biotinyl-Trp-oxazolone = experiment: self-aminoacylation, catalytic enhancement (BWO) (fold over background); higher = more active; k-Seq, kA / k0A0; sequences stand for … in GGGAAUGGAUCCACAUCUACGAAUUC…UUCACUGCAGACUUGACGAAGCUG
Method in brief: as §1

Sequence	self-aminoacylation (biotinyl-Val-oxazolone)	self-aminoacylation (biotinyl-Ile-oxazolone)	self-aminoacylation (biotinyl-Met-oxazolone)	self-aminoacylation (biotinyl-Leu-oxazolone)	self-aminoacylation (biotinyl-Phe-oxazolone)	self-aminoacylation (biotinyl-Trp-oxazolone)
AUGUUUGCUAAUCGUCGCAAG [Fam3.1 aminoacylation ribozyme variant]	1.44	1.32	1.13	1.32	1.59	1.01
AUGUUUGCUAAUUGUCGCAAG [Fam3.1 aminoacylation ribozyme variant]	1.17	1.38	1.41	1.64	1.81	2.13
AUGUUUGCUAGUAGUCGCAAG [Fam3.1 aminoacylation ribozyme variant]	0.827	0.957	1.15	0.911	1.15	0.975
AUUAAACUAGGUCAUCGGGUG [Fam2.2 aminoacylation ribozyme variant]	3.11	2.89	3.79	5.02	23	4.43
AUUAACCCGGUCAUCGAGUGA [Fam2.1 aminoacylation ribozyme variant]	4.15	3.71	7.21	7.87	54.5	9.1
AUUAACCGGGUCAUCGAGUGA [Fam2.1 aminoacylation ribozyme variant]	3.29	3.38	6.03	7.07	36	7.04
AUUAACCUAGGUCAUCGAGUG [Fam2.2 aminoacylation ribozyme variant]	5.78	7.02	8.83	11.7	17.9	4.39
AUUAACCUAGGUCGUCGGGUG [Fam2.2 aminoacylation ribozyme variant]	1.42	1.38	1.7	2.01	3.08	1.42
AUUAACCUAGGUGAUCGGGUG [Fam2.2 aminoacylation ribozyme variant]	2.1	2.31	3.25	3.63	8.95	2.9
AUUAACCUGGACAUCGAGUGA [Fam2.1 aminoacylation ribozyme variant]	2.89	2.99	6.63	6.88	32.9	8.58
AUUAACCUGGGCAUCGAGUGA [Fam2.1 aminoacylation ribozyme variant]	2.6	2.63	4.66	5.72	20.5	5.8
AUUAACCUGGUAAUCGAGUGA [Fam2.1 aminoacylation ribozyme variant]	4.05	3.86	8.82	9.73	52.9	11.3
AUUAACCUGGUCAUAGAGUGA [Fam2.1 aminoacylation ribozyme variant]	2.55	2.31	4.3	4.78	17.4	6.17
AUUAACCUGGUCAUCGAGCGA [Fam2.1 aminoacylation ribozyme variant]	1.5	1.79	1.88	1.68	1.01	1.37
AUUAACCUGGUCAUCGGGUGA [Fam2.1 aminoacylation ribozyme variant]	4.72	4.26	8.87	9.83	53.1	11
AUUAACCUGGUGAUCGAGUGA [Fam2.1 aminoacylation ribozyme variant]	3.16	3.62	6.03	6.66	25.7	8.53
AUUAAUCUGGUCAUCGAGUGA [Fam2.1 aminoacylation ribozyme variant]	2.88	3.24	4.7	5.01	15.6	6.95
AUUACACAGGUCAUCGAGUGA [Fam2.1 aminoacylation ribozyme variant]	2.44	2.5	3.66	3.37	8.1	5.05
AUUACACGGGUCAUCGAGUGA [Fam2.1 aminoacylation ribozyme variant]	3.1	2.64	4.62	4.33	21.7	5.36
AUUACACUGGCCAUCGAGUGA [Fam2.1 aminoacylation ribozyme variant]	3.07	3.13	6.45	6.8	15.9	5.64
AUUACACUGGUAAUCGAGUGA [Fam2.1 aminoacylation ribozyme variant]	3.38	4.09	7.53	8.16	30.4	8.34
AUUACACUGGUCAUCGAGUUA [Fam2.1 aminoacylation ribozyme variant]	1.02	1.18	1.05	1.09	0.876	1.38
AUUACACUGGUCAUCGGGUGA [Fam2.1 aminoacylation ribozyme variant]	5.51	5.02	9.88	9.65	59.4	9.23
AUUACCAUGGGCAUCGAGUGA [Fam2.1 aminoacylation ribozyme variant]	3.13	3	6.01	6.48	30.7	7.88
AUUACCAUGGUCACCGAGUGA [Fam2.1 aminoacylation ribozyme variant]	3.41	3.34	8.17	9.1	49.9	8.6
AUUACCAUGGUCAUAGAGUGA [Fam2.1 aminoacylation ribozyme variant]	3.51	4.13	8.44	8.72	37.6	10

Sequence	self-aminoacylation (biotinyl-Val-oxazolone)	self-aminoacylation (biotinyl-Ile-oxazolone)	self-aminoacylation (biotinyl-Met-oxazolone)	self-aminoacylation (biotinyl-Leu-oxazolone)	self-aminoacylation (biotinyl-Phe-oxazolone)	self-aminoacylation (biotinyl-Trp-oxazolone)
AUUACCAUGGUCAUCCAGUGA [Fam2.1 aminoacylation ribozyme variant]	3.46	3.62	5.96	6.27	28.2	8
AUUACCAUGGUCAUCGAGCGA [Fam2.1 aminoacylation ribozyme variant]	1.79	1.73	2.24	1.98	1.04	1.64
AUUACCAUGGUCAUUGAGUGA [Fam2.1 aminoacylation ribozyme variant]	5.51	5.76	11.8	12.1	63.6	13.8
AUUACCAUGGUCGUCGAGUGA [Fam2.1 aminoacylation ribozyme variant]	1.08	1.21	1.3	1.25	0.902	1.48
AUUACCAUUGUCAUCGAGUGA [Fam2.1 aminoacylation ribozyme variant]	4.25	4.32	7.41	8.46	40.4	10.4
AUUACCCAGGUCAGCGAGUGA [Fam2.1 aminoacylation ribozyme variant]	3.31	3.4	5.2	5.59	34.2	6.47
AUUACCCAGGUCAUCCAGUGA [Fam2.1 aminoacylation ribozyme variant]	3.14	3.13	5.32	5.76	24.2	6.41
AUUACCCAGGUCAUCGAGGGA [Fam2.1 aminoacylation ribozyme variant]	1.37	1.36	1.38	1.48	1.52	1.16
AUUACCCAGGUCAUCGAGUGC [Fam2.1 aminoacylation ribozyme variant]	0.958	0.777	0.643	0.919	0.417	0.852
AUUACCCAGGUCAUCGAGUGU [Fam2.1 aminoacylation ribozyme variant]	2.06	1.65	2.74	2.71	2.45	3.39
AUUACCCAGGUCAUUGAGUGA [Fam2.1 aminoacylation ribozyme variant]	4.36	4.59	8.2	9.04	53.1	10.4
AUUACCCAGGUCCUCGAGUGA [Fam2.1 aminoacylation ribozyme variant]	2.15	2.2	2.79	3.11	10.3	3.69
AUUACCCAGGUCGUCGAGUGA [Fam2.1 aminoacylation ribozyme variant]	0.951	0.849	0.786	0.669	0.686	0.416
AUUACCCCGGUCAGCGAGUGA [Fam2.1 aminoacylation ribozyme variant]	3.28	3.32	4.82	4.92	31.4	5.45
AUUACCCCGGUCAUCGAGAGA [Fam2.1 aminoacylation ribozyme variant]	0.651	0.935	0.8	0.708	1.03	1.07
AUUACCCCGGUCAUCGAGGGA [Fam2.1 aminoacylation ribozyme variant]	1.93	1.15	1.21	1.07	2.68	1.67
AUUACCCCGGUCAUCGAGUGU [Fam2.1 aminoacylation ribozyme variant]	1.87	1.56	2.58	2.45	9.98	3.57
AUUACCCCGGUCAUCGCGUGA [Fam2.1 aminoacylation ribozyme variant]	11.8	11.2	23.7	24.3	174	23.8
AUUACCCCGGUCCUCGAGUGA [Fam2.1 aminoacylation ribozyme variant]	2.21	2.29	3.32	3.97	25.5	4.82
AUUACCCCGGUCGUCGAGUGA [Fam2.1 aminoacylation ribozyme variant]	1	0.914	1.39	1.41	2.06	0.938
AUUACCCGCGUCAUCGAGUGA [Fam2.1 aminoacylation ribozyme variant]	2.8	2.37	4.55	4.6	24.9	5.55
AUUACCCGGGGCAUCGAGUGA [Fam2.1 aminoacylation ribozyme variant]	4.54	5.21	8.31	10.2	62.9	11.5
AUUACCCGGGUCACCGAGUGA [Fam2.1 aminoacylation ribozyme variant]	8.28	6.79	19.3	21.4	145	19.5
AUUACCCGGGUCAUCGAAUGA [Fam2.1 aminoacylation ribozyme variant]	1.29	1	0.972	1.25	0.592	0.515
AUUACCCGGGUCAUCGAGUCA [Fam2.1 aminoacylation ribozyme variant]	1.16	1.29	1.32	1.22	1.05	0.967
